Assay results reported in US20120014957A1 (AbbVie / Abbott, published 2012).

How the values were obtained:
[1] = target: T1, Recombinant Human VEGF 165 (human, UniProt P15692-4 27-191); test: SPR (Biacore)
T1 construct: Bought reagent
Method: (§1) The BIACORE assay (Biacore, Inc, Piscataway, N.J.) determines the affinity of antibodies or DVD-Ig with kinetic measurements of on-rate and off-rate constants. Binding of antibodies or DVD-Ig to a target antigen (for example, a purified recombinant target antigen) was determined by surface plasmon resonance-based measurements with a Biacore® 1000 or 3000 instrument (Biacore® AB, Uppsala, Sweden) using running HBS-EP (10 mM HEPES [pH 7.4], 150 mM NaCl, 3 mM EDTA, and 0.005% surfactant P20) at 25° C. All chemicals were obtained from Biacore® AB (Uppsala, Sweden) or otherwise from a different source as described in the text. For example, approximately 5000 RU of goat anti-mouse IgG, (Fcγ), fragment specific polyclonal antibody (Pierce Biotechnology Inc, Rockford, Ill.) diluted in 10 mM sodium acetate (pH 4.5) was directly immobilized across a CM5 research grade biosensor chip using a standard amine coupling kit according to manufacturer's instructions and procedures at 25 μg/ml. Unreacted moieties on the biosensor surface were blocked with ethanolamine. Modified carboxymethyl dextran surface in flowcell 2 and 4 was used as a reaction surface. Unmodified carboxymethyl dextran without goat anti-mouse IgG in flow cell 1 and 3 was used as the reference surface. For kinetic analysis, rate equations derived from the 1:1 Langmuir binding model were fitted simultaneously to association and dissociation phases of all eight injections (using global fit analysis) with the use of Biaevaluation 4.0.1 software. Purified antibodies or DVD-Ig were diluted in HEPES-buffered saline for capture across goat anti-mouse IgG specific reaction surfaces. Antibodies or DVD-Ig to be captured as a ligand (25 μg/ml) were injected over reaction matrices at a flow rate of 5 μl/min. The association and dissociation rate constants, kₒₙ (M⁻¹s⁻¹) and koff (s⁻¹) were determined under a continuous flow rate of 25 μl/min. Rate constants were derived by making kinetic binding measurements at different antigen concentrations ranging from 10-200 nM. The equilibrium dissociation constant (M) of the reaction between antibodies or DVD-Igs and the target antigen was then calculated from the kinetic rate constants by the following formula: KD=koff/kₒₙ. Binding was recorded as a function of time and kinetic rate constants were calculated.

[2] = target: T2, Recombinant Human MSP R/Ron (human, UniProt Q04912 25-571, limits assumed); test: SPR (Biacore)
T2 construct: Bought reagent
Method: as §1

[3] = target: T3, Recombinant Human PlGF (human, UniProt P49763-2 21-149, limits assumed); test: SPR (Biacore)
T3 construct: Bought reagent; also called P1GF
T3 sequence (looked up): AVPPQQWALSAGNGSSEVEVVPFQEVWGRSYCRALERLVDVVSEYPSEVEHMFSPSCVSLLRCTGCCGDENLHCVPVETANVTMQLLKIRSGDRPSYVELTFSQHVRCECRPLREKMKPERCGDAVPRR
Method: as §1

[4] = target: Recombinant Human β-NGF (human, UniProt P01138 122-241); test: cell-based or functional assay
[5] = target: T4, Recombinant Human EGF R/ErbB1 (human, UniProt P00533 25-645); test: SPR (Biacore)
T4 construct: Bought reagent
Method: as §1

[6] = target: T5, Recombinant Human ErbB3/HER3 Fc Chimera (human, UniProt P21860 20-643); test: SPR (Biacore)
T5 construct: Bought reagent; not shown: IgG Fc part of the bought chimera
Method: as §1

[7] = target: T6, IGFR on cells (UniProt P08069 31-1367, limits assumed); test: flow cytometry on cells, antibody at 2 ug/mL
T6 construct: whole, on cells; also called IGF1R
Method: Stable cell lines overexpressing a cell-surface antigen of interest or human tumor cell lines were harvested from tissue culture flasks and resuspended in phosphate buffered saline (PBS) containing 5% fetal bovine serum (PBS/FBS). Prior to staining, human tumor cells were incubated on ice with (100 μl) human IgG at 5 μg/ml in PBS/FCS. 1−5×10⁵ cells were incubated with antibody or DVD-Ig (2 μg/mL) in PBS/FBS for 30-60 minutes on ice. Cells were washed twice and 100 μl of F(ab′)2 goat anti human IgG, Fcγ-phycoerythrin (1:200 dilution in PBS) (Jackson ImmunoResearch, West Grove, Pa., Cat. #109-116-170) was added. After a 30 minute incubation on ice, cells were washed twice and resuspended in PBS/FBS. Fluorescence was measured using a Becton Dickinson FACSCalibur (Becton Dickinson, San Jose, Calif.).
The geometric mean is the n root of the multiplication product of n fluorescent signals (a1×a2×a3 . . . an). With log-transformed data the geometric mean is used to normalize the weighting of the data distribution.

[8] = target: T7, Recombinant Human DLL4 (human, UniProt Q9NR61 27-524); test: SPR (Biacore)
T7 construct: Bought reagent of the Biacore analyses
Method: as §1

T7 sequence (Q9NR61 27-524 limits assumed): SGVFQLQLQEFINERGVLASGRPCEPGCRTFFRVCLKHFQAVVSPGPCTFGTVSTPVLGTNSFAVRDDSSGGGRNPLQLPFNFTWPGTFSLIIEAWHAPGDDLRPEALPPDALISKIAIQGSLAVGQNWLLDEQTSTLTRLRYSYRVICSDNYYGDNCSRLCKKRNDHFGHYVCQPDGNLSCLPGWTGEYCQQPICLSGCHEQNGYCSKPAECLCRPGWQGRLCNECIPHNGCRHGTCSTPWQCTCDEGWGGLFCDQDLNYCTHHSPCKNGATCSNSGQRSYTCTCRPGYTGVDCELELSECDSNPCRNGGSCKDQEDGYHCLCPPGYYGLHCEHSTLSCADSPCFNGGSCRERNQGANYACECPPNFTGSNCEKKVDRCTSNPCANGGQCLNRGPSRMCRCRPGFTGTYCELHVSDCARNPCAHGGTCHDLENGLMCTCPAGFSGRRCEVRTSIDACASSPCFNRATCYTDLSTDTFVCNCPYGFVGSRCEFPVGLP
T1 sequence (P15692 other isoform, or with tags, fused parts or gaps limits assumed): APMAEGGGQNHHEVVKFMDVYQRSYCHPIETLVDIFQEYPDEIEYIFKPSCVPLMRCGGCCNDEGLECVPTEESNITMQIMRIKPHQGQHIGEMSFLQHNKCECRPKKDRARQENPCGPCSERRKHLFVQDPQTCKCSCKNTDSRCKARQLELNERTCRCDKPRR

B1: DVD1328 (bispecific antibody, human IgG1, kappa)
heavy: not shown
light: DIQMTQSPSSLSASVGDRVTITCSASQDISNYLNWYQQKPGKAPKVLIYFTSSLHSGVPSRFSGSGSGTDFTLTISSLQPEDFATYYCQQYSTVPWTFGQGTKVEIKRTVAAPDIQMTQSPSSLSASVGDRVTITCRASEDIYNALAWYQQKPGKAPKLLIYNTDTLHTGVPSRFSGSGSGTDYTLTISSLQPEDFATYFCQHYFHYPRTFGQGTKVEIKRTVAAPSVFIFPPSDEQLKSGTASVVCLLNNFYPREAKVQWKVDNALQSGNSQESVTEQDSKDSTYSLSSTLTLSKADYEKHKVYACEVTHQGLSSPVTKSFNRGEC
notes: DVD-Ig; also called DVD1328H; DVD1328L
Kd [1]: 0.08 nM | koff [1]: 7.7e-05 s⁻¹ | kon [1]: 960000 M⁻¹ s⁻¹

B2: DVD1334 (bispecific antibody, human IgG1, kappa)
heavy: not shown
light: QAVLTQPSSLSAPPGASASLTCTLRSGFNVDSYRISWYQQKPGSPPQYLLRYKSDSDKQQGSGVPSRFSGSKDASANAGILLISGLQSEDEADYYCMIWHSSAWVFGGGTKLTVLRTVAAPDIQMTQSPSSLSASVGDRVTITCRASEDIYNALAWYQQKPGKAPKLLIYNTDTLHTGVPSRFSGSGSGTDYTLTISSLQPEDFATYFCQHYFHYPRTFGQGTKVEIKRTVAAPSVFIFPPSDEQLKSGTASVVCLLNNFYPREAKVQWKVDNALQSGNSQESVTEQDSKDSTYSLSSTLTLSKADYEKHKVYACEVTHQGLSSPVTKSFNRGEC
notes: DVD-Ig; also called DVD1334H; DVD1334L
Kd [2]: 5.7 nM | koff [2]: 0.0067 s⁻¹ | kon [2]: 1.2e+06 M⁻¹ s⁻¹

B3: AB047 (antibody, V domains shown)
VH: QVQLQQSGAELVKPGASVKISCKASGYTFTDYYINWVKLAPGQGLEWIGWIYPGSGNTKYNEKFKGKATLTIDTSSSTAYMQLSSLTSEDTAVYFCVRDSPFFDYWGQGTLLTVSS
VL: DIVLTQSPDSLAVSLGERVTMNCKSSQSLLNSGMRKSFLAWYQQKPGQSPKLLIYWASTRESGVPDRFTGSGSGTDFTLTISSVQAEDVAVYYCKQSYHLFTFGSGTKLEIKR
notes: Parent antibody; also called PlGF; AB047VH
Kd [3]: 0.0282 nM | koff [3]: 0.000108 s⁻¹ | kon [3]: 3.8e+06 M⁻¹ s⁻¹

B4: DVD1370 (bispecific antibody, human IgG1, kappa)
heavy: not shown
light: DIQMTQSPSSMSVSVGDRVTITCHSSQDINSNIGWLQQKPGKSFKGLIYHGTNLDDGVPSRFSGSGSGTDYTLTISSLQPEDFATYYCVQYAQFPWTFGGGTKLEIKRTVAAPDIQMTQSPSSLSASVGDRVTITCRASEDIYNALAWYQQKPGKAPKLLIYNTDTLHTGVPSRFSGSGSGTDYTLTISSLQPEDFATYFCQHYFHYPRTFGQGTKVEIKRTVAAPSVFIFPPSDEQLKSGTASVVCLLNNFYPREAKVQWKVDNALQSGNSQESVTEQDSKDSTYSLSSTLTLSKADYEKHKVYACEVTHQGLSSPVTKSFNRGEC
notes: DVD-Ig; also called DVD1370H; DVD1370L
C-Terminal VD NGF Inhibition Assay EC50 [4]: 5.96 nM | Kd [5]: < 9.1 pM | koff [5]: < 1e-06 s⁻¹ | kon [5]: 110000 M⁻¹ s⁻¹

B5: DVD1320 (bispecific antibody, human IgG1, kappa)
heavy: not shown
light: DIQMTQSPSSLSASVGDRVTITCQASQDITNYLNWYQQKPGKAPKLLIYDASNLETGVPSRFSGSGSGTDFTFTISSLQPEDIATYNCQQCENFPITFGQGTRLEIKRTVAAPDIQMTQSPSSLSASVGDRVTITCRASEDIYNALAWYQQKPGKAPKLLIYNTDTLHTGVPSRFSGSGSGTDYTLTISSLQPEDFATYFCQHYFHYPRTFGQGTKVEIKRTVAAPSVFIFPPSDEQLKSGTASVVCLLNNFYPREAKVQWKVDNALQSGNSQESVTEQDSKDSTYSLSSTLTLSKADYEKHKVYACEVTHQGLSSPVTKSFNRGEC
notes: DVD-Ig; also called DVD1320H; DVD1320L
Kd [6]: < 0.0042 nM | koff [6]: < 1e-06 s⁻¹ | kon [6]: 240000 M⁻¹ s⁻¹

B6: AB063 (antibody, V domains shown)
VH: EVQLVESGGGLVQPGGSLRLSCAASGFTFSIYSMNWVRQAPGKGLEWVSYISSSSSTIYYADSVKGRFTISRDNAKNSLYLQMNSLRDEDTAVYYCARDRGDFDAFDIWGQGTMVTVSS
VL: DIQMTQSPSSLSASVGDRVTITCQASQDITNYLNWYQQKPGKAPKLLIYDASNLETGVPSRFSGSGSGTDFTFTISSLQPEDIATYNCQQCENFPITFGQGTRLEIKR
notes: Parent antibody; also called AB063VH
Kd [6]: 1.36 nM | koff [6]: 0.000117 s⁻¹ | kon [6]: 86600 M⁻¹ s⁻¹

B7: DVD1332 (bispecific antibody, human IgG1, kappa)
heavy: not shown
light: DIVLTQSPDSLAVSLGERVTMNCKSSQSLLNSGMRKSFLAWYQQKPGQSPKLLIYWASTRESGVPDRFTGSGSGTDFTLTISSVQAEDVAVYYCKQSYHLFTFGSGTKLEIKRTVAAPDIQMTQSPSSLSASVGDRVTITCRASEDIYNALAWYQQKPGKAPKLLIYNTDTLHTGVPSRFSGSGSGTDYTLTISSLQPEDFATYFCQHYFHYPRTFGQGTKVEIKRTVAAPSVFIFPPSDEQLKSGTASVVCLLNNFYPREAKVQWKVDNALQSGNSQESVTEQDSKDSTYSLSSTLTLSKADYEKHKVYACEVTHQGLSSPVTKSFNRGEC
notes: DVD-Ig; also called DVD1332H; DVD1332L
Kd [3]: 0.055 nM | koff [3]: 0.00017 s⁻¹ | kon [3]: 3e+06 M⁻¹ s⁻¹

B8: AB005 (antibody, V domains shown)
VH: EVQLVQSGGGLVKPGGSLRLSCAASGFTFSSYAMHWVRQAPGKGLEWVAVISYDGSNKYYADSVKGRFTISRDNSKNTLYLQMNSLRAEDTAVYYCARFSGWPNNYYYYGMDVWGQGTTVTVSS
VL: DVVMTQSPLSLPVTPGEPASISCRSSQSLLHSNGFNYVDWYLQKPGQSPHLLIYFGSYRASGVPDRFSGSGSGTDFTLKISRVEAEDVGVYYCMQALQTPPWTFGQGTKVEIRR
notes: Parent antibody; also called RON
Kd [2]: 20.2 nM | koff [2]: 0.000739 s⁻¹ | kon [2]: 36600 M⁻¹ s⁻¹

B9: DVD1369 (bispecific antibody, human IgG1, kappa)
heavy: not shown
light: DIQMTQSPSSLSASVGDRVTITCRASEDIYNALAWYQQKPGKAPKLLIYNTDTLHTGVPSRFSGSGSGTDYTLTISSLQPEDFATYFCQHYFHYPRTFGQGTKVEIKRTVAAPDIQMTQSPSSMSVSVGDRVTITCHSSQDINSNIGWLQQKPGKSFKGLIYHGTNLDDGVPSRFSGSGSGTDYTLTISSLQPEDFATYYCVQYAQFPWTFGGGTKLEIKRTVAAPSVFIFPPSDEQLKSGTASVVCLLNNFYPREAKVQWKVDNALQSGNSQESVTEQDSKDSTYSLSSTLTLSKADYEKHKVYACEVTHQGLSSPVTKSFNRGEC
notes: DVD-Ig; also called DVD1369H; DVD1369L
N-Terminal VD NGF Inhibition Assay EC50 [4]: 5.6 pM | Kd [5]: < 2.4 pM | koff [5]: < 1e-06 s⁻¹ | kon [5]: 410000 M⁻¹ s⁻¹

B10: AB011 (antibody, V domains shown)
VH: EVQLLESGGGLVQPGGSLRLSCTASGFTFSSYAMNWVRQAPGKGLEWVSAISGSGGTTFYADSVKGRFTISRDNSRTTLYLQMNSLRAEDTAVYYCAKDLGWSDSYYYYYGMDVWGQGTTVTVSS
VL: DIQMTQFPSSLSASVGDRVTITCRASQGIRNDLGWYQQKPGKAPKRLIYAASRLHRGVPSRFSGSGSGTEFTLTISSLQPEDFATYYCLQHNSYPCSFGQGTKLEIKR
notes: Parent antibody; also called IGFR; IGF1R
FACS Geometric Mean [7]: 535

B11: DVD1330 (bispecific antibody, human IgG1, kappa)
heavy: not shown
light: DIQMTQSPSSLSASVGDRVTITCRASQDVSTAVAWYQQKPGKAPKLLIYSASFLYSGVPSRFSGSGSGTDFTLTISSLQPEDFATTYYCQQSYTGTVTFGQGTKVEIKRTVAAPDIQMTQSPSSLSASVGDRVTITCRASEDIYNALAWYQQKPGKAPKLLIYNTDTLHTGVPSRFSGSGSGTDYTLTISSLQPEDFATYFCQHYFHYPRTFGQGTKVEIKRTVAAPSVFIFPPSDEQLKSGTASVVCLLNNFYPREAKVQWKVDNALQSGNSQESVTEQDSKDSTYSLSSTLTLSKADYEKHKVYACEVTHQGLSSPVTKSFNRGEC
notes: DVD-Ig; also called DVD1330H; DVD1330L
Kd [8]: 0.38 nM | koff [8]: 0.0002 s⁻¹ | kon [8]: 520000 M⁻¹ s⁻¹
